The test deals with T1, 重组PSMA蛋白 (human, UniProt Q04609 44-750).
T1 construct: also called 人PSMA蛋白; 人PSMA重组蛋白
Description: SPR (Biacore); recombinant PSMA immobilised on CM5 chip, J591 as analyte at 0.125-4.0 μg/mL.

T1 sequence (Q04609 44-750 limits assumed): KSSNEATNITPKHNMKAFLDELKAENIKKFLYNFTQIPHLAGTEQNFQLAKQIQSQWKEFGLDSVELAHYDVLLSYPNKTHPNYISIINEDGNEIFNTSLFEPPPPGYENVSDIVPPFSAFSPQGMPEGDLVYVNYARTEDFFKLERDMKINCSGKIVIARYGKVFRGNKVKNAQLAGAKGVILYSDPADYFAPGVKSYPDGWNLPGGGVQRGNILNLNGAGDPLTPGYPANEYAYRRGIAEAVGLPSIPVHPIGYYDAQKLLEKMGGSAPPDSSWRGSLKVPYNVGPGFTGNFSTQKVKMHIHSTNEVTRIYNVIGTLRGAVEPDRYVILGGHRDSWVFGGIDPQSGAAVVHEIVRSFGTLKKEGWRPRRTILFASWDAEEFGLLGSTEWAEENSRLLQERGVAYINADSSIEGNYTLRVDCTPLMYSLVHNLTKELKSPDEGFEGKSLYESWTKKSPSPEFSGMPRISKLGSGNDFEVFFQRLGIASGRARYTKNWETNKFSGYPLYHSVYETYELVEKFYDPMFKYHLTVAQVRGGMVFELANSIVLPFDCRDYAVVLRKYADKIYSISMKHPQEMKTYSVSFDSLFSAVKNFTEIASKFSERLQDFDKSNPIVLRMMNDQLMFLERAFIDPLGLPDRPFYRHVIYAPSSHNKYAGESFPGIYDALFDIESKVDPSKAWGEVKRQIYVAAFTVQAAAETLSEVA

B1: 人源化单抗J591 (antibody, V domains shown)
VH: EVQLQQSGPELKKPGTSVRISCKTSGYTFTEYTIHWVKQSHGKSLEWIGNINPNNGGTTYNQKFEDKATLTVDKSSSTAYMELRSLTSEDSAVYYCAAGWNFDYWGQGTTLTVSS
VL: DIVMTQSHKFMSTSVGDRVSIICKASQDVGTAVDWYQQKPGQSPKLLIYWASTRHTGVPDRFTGSGSGTDFTLTITNVQSEDLADYFCQQYNSYPLTFGAGTMLDLK
notes: Expressed from pcDNA3.0 in suspension host cells and purified on Protein A; also called 人源化抗体J591; J591单抗
As to B1, the Kd was found to be 1.61 nM.

For orientation: Kd means the concentration at which binding is half-saturated.

The values are drawn from patent CN116370651A (SHANGHAI YUANZHI BIO TECH CO LTD, dated 2023).
